Paper PMC5727412

Target: AcrE1 with a C-terminal 6×His tag (Pseudomonas phage JBD5)
Test: SEC; purified AcrE1 CHis; single peak; elution volume compared with a standard curve to estimate the native molecular mass

stoichiometry N: 2
Substance: AcrE1 with a C-terminal 6×His tag (natural protein)
